Experimental findings from patent US20110086768A1 are described below.

In this experiment the target is FLAG-transferrin fusion (pREX1235): modified transferrin (mTf) with a FLAG Tag at the N-terminus and the human GPI sequence at the C-terminus, expressed in HEK-293 cells (human) (UniProt P02787). Nature of the experiment: FACS of transfected HEK-293 cells with mouse anti-FLAG BioM2 and goat anti-mouse-APC.
Sequence of UniProt P02787 (P02787 other isoform, or with tags, fused parts or gaps limits assumed): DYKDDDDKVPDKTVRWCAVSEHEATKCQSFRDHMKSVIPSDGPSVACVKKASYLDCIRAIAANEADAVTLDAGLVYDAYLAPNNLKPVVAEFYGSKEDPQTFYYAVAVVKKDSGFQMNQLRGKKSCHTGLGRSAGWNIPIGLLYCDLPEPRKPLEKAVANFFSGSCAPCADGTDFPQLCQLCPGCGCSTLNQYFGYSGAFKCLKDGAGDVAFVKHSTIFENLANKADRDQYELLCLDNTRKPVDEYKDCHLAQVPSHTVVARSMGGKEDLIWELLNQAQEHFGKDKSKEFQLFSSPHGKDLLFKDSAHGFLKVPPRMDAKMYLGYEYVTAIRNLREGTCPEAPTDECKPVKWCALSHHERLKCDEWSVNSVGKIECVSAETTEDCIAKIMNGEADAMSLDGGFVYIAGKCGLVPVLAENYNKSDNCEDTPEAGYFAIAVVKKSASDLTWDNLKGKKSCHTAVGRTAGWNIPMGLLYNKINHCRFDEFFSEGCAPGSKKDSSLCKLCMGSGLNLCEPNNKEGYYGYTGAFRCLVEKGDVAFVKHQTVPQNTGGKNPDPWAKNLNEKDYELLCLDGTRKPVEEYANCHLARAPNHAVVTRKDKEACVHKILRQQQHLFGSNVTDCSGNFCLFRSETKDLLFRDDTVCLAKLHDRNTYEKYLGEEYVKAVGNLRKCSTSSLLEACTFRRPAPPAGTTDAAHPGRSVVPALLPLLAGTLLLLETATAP

Substance “mouse anti-FLAG BioM2 (Sigma) (antibody)” returned a fold increase in staining relative to mock-transfected cells of 4 fold.
